Laboratory results: US20260184814A1, “BROADLY NE[…] INFLUENZA NEURAMINIDASE” (priority 2022, published 2026)
Where two headings read alike, the source gives them in different places.

Key:
[1] = target: human FcγRIIa (R131 allele) (human) (UniProt P12318); experiment: MSD [cont'd]
human FcγRIIb (human) [2] = target: human FcγRIIb (human) (UniProt P31994); experiment: MSD [cont'd]
[3] = target: human FcγRIIIa (V158 allele) (human) (UniProt P08637); experiment: MSD [cont'd]
[4] = target: human FcγRIIIa (F158 allele) (human) (UniProt P08637); experiment: MSD [cont'd]
human FcRn (human) [5] = target: human FcRn (human) (UniProt P55899); experiment: MSD [cont'd]
[6] = target: human FcγRIIa (H131 allele) (human) (UniProt P12318); experiment: MSD [cont'd]
human C1q (human) [7] = target: human C1q (human) (UniProt P02745); experiment: MSD [cont'd]
[8] = target: human FcγRIIa (R131 allele) (human) (UniProt P12318); experiment: MSD [cont'd]; remark: listed apart in the source
human FcγRIIb (human) [9] = target: human FcγRIIb (human) (UniProt P31994); experiment: MSD [cont'd]; remark: listed apart in the source
[10] = target: human FcγRIIIa (V158 allele) (human) (UniProt P08637); experiment: MSD [cont'd]; remark: listed apart in the source
[11] = target: human FcγRIIIa (F158 allele) (human) (UniProt P08637); experiment: MSD [cont'd]; remark: listed apart in the source
human FcRn (human) [12] = target: human FcRn (human) (UniProt P55899); experiment: MSD [cont'd]; remark: listed apart in the source
human FcγRIIIb (human) [13] = target: human FcγRIIIb (human) (UniProt O75015); experiment: MSD [cont'd]
[14] = target: human FcγRIIa (H131 allele) (human) (UniProt P12318); experiment: MSD [cont'd]; remark: listed apart in the source
[15] = target: human FcγRIIIa (V158 allele) (human) (UniProt P08637)
[16] = target: human FcγRIIIa (F158 allele) (human) (UniProt P08637)
human C1q (human) [17] = target: human C1q (human) (UniProt P02745); experiment: MSD [cont'd]; remark: listed apart in the source
human FcγRIIb (human) [18] = target: human FcγRIIb (human) (UniProt P31994)
[19] = target: human FcγRIIIa (V158 allele) (human) (UniProt P08637); remark: listed apart in the source
[20] = target: human FcγRIIIa (F158 allele) (human) (UniProt P08637); remark: listed apart in the source
[21] = target: human FcγRIIa (H131 allele) (human) (UniProt P12318)
[22] = target: human FcγRIIa (R131 allele) (human) (UniProt P12318); experiment: MSD
human FcγRIIb (human) [23] = target: human FcγRIIb (human) (UniProt P31994); experiment: MSD
[24] = target: human FcγRIIa (H131 allele) (human) (UniProt P12318); experiment: MSD
human FcRn (human) [25] = target: human FcRn (human) (UniProt P55899); experiment: MSD, pH 6 [cont'd]
human FcγRIIb (human) [26] = target: human FcγRIIb (human) (UniProt P31994); experiment: MSD electrochemiluminescence binding assay; column IIB
[27] = target: human FcγRIIIa (F158 allele) (human) (UniProt P08637); experiment: MSD electrochemiluminescence binding assay; column IIIA_F
human FcγRIIb (human) [28] = target: human FcγRIIb (human) (UniProt P31994); remark: listed apart in the source
[29] = target: human FcγRIIIa (V158 allele) (human) (UniProt P08637); remark: listed apart in the source
[30] = target: human FcγRIIIa (F158 allele) (human) (UniProt P08637); remark: listed apart in the source
[31] = target: human FcγRIIa (H131 allele) (human) (UniProt P12318); remark: listed apart in the source
[32] = target: human FcγRIIa (H131 allele) (human) (UniProt P12318); experiment: MSD electrochemiluminescence binding assay; column IIA_H
[33] = target: human FcγRIIIa (V158 allele) (human) (UniProt P08637); experiment: MSD electrochemiluminescence binding assay; column IIIA_V
[34] = target: human FcγRIIa (R131 allele) (human) (UniProt P12318); experiment: MSD electrochemiluminescence binding assay; column IIA_R
[35] = target: human FcγRIIIa (V158 allele) (human) (UniProt P08637); experiment: MSD
[36] = target: human FcγRIIIa (F158 allele) (human) (UniProt P08637); experiment: MSD
human FcRn (human) [37] = target: human FcRn (human) (UniProt P55899); experiment: MSD
human FcγRIIIb (human) [38] = target: human FcγRIIIb (human) (UniProt O75015); experiment: MSD
human C1q (human) [39] = target: human C1q (human) (UniProt P02745); experiment: MSD
human FcRn (human) [40] = target: human FcRn (human) (UniProt P55899); experiment: MSD electrochemiluminescence binding assay; column FcRn
human FcγRIIIb (human) [41] = target: human FcγRIIIb (human) (UniProt O75015); experiment: MSD electrochemiluminescence binding assay; column IIIB

human FcγRIIIa (V158 allele) (human), sequence (P08637 17-208 F176V limits assumed): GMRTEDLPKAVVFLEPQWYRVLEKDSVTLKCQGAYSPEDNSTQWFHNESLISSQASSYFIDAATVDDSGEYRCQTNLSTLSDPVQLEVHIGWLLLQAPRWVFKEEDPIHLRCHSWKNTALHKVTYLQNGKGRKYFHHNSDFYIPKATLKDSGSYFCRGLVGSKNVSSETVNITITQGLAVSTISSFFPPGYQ
human C1q (human), sequence (P02745 23-245 limits assumed, chain 1 of 3): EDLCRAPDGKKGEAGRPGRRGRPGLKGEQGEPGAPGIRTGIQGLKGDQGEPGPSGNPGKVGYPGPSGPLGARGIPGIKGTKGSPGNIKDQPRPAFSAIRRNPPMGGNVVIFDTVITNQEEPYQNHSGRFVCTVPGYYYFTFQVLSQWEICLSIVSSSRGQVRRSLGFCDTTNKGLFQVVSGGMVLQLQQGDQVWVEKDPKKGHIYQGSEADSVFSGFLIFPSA
human C1q (human), sequence (P02746 28-253 limits assumed, chain 2 of 3, further chain): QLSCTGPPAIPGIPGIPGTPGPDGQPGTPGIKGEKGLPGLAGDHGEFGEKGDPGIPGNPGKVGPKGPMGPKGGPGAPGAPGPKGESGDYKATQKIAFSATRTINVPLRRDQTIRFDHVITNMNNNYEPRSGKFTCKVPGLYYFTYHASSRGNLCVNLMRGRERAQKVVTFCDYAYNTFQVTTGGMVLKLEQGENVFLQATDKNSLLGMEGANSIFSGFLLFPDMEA
human C1q (human), sequence (P02747 29-245 limits assumed, chain 3 of 3, further chain): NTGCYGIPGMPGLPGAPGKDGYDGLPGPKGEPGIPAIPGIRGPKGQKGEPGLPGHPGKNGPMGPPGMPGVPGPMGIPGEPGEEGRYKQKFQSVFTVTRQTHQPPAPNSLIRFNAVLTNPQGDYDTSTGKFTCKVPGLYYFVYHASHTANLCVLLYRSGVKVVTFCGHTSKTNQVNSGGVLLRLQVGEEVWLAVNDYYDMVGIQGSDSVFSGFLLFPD
human FcγRIIa (H131 allele) (human), sequence (P12318 34-218 limits assumed): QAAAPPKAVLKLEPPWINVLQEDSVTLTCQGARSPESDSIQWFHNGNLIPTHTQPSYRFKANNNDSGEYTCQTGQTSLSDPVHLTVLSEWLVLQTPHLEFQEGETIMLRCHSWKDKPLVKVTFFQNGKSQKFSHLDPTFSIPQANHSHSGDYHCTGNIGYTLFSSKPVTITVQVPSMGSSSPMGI
human FcRn (human), sequence (P55899 24-297 limits assumed, chain 1 of 2): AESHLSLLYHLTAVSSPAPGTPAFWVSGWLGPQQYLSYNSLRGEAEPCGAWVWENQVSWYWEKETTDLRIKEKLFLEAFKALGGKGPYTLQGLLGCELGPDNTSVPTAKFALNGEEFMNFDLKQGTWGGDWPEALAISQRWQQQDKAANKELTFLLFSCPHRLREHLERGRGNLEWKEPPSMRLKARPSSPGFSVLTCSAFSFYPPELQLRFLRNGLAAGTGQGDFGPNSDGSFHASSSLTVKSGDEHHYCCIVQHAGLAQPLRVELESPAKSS
human FcRn (human), sequence (chain, as listed by the source limits assumed, chain 2 of 2): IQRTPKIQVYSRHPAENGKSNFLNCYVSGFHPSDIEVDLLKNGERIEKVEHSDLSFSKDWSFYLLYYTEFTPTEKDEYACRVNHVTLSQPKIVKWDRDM
human FcγRIIa (R131 allele) (human), sequence (P12318 34-218 H167R limits assumed): as the sequence (P12318 34-218 limits assumed) above, with H134R counted along it
human FcγRIIIa (F158 allele) (human), sequence (P08637 17-208 limits assumed): as the sequence (P08637 17-208 F176V limits assumed) above, with V160F counted along it
human FcγRIIIb (human), sequence (O75015 17-200 limits assumed): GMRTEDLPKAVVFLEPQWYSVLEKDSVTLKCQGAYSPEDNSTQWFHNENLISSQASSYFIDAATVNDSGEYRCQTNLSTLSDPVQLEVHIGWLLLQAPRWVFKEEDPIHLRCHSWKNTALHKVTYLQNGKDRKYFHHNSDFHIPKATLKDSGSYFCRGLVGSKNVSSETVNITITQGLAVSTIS
human FcγRIIb (human), sequence (P31994 43-217 limits assumed): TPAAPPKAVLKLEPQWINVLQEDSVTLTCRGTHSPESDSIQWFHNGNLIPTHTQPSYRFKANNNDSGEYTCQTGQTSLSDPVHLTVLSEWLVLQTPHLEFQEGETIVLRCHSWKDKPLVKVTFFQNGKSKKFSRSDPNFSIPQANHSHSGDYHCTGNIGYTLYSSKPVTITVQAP

Substance: IgG1 antibody with Fc variant F243L_G446E_P396L_S267E
- fold-change vs wt [1]: 31.1 fold
- fold-change vs wt (human FcγRIIb (human) [2]): 15.7 fold
- fold-change vs wt [3]: 0.24 fold
- fold-change vs wt [4]: 0.63 fold
- fold-change vs wt (human FcRn (human) [5]): 1.05 fold
- fold-change vs wt [6]: 0.77 fold
- fold-change vs wt (human C1q (human) [7]): 4.17 fold

Substance: S239D_H268E_G236A-afuc (antibody)
- fold to wt-fucose [8]: 62 fold
- fold to wt-fucose (human FcγRIIb (human) [9]): 6.35 fold
- fold to wt-fucose [10]: 84.9 fold
- fold to wt-fucose [11]: 425 fold
- fold to wt-fucose (human FcRn (human) [12]): 1.01 fold
- fold to wt-fucose (human FcγRIIIb (human) [13]): 38.1 fold
- fold to wt-fucose [14]: 13.6 fold
- FcγR reporter signaling, fold to wt-fucose [cont'd] [15]: 5.65 fold
- FcγR reporter signaling, fold to wt-fucose [cont'd] [16]: 11.6 fold

Substance: A330L_I332E (antibody)
- fold-change vs wt [8]: 0.52 fold
- fold-change vs wt (human FcγRIIb (human) [9]): 0.66 fold
- fold-change vs wt [10]: 3.52 fold
- fold-change vs wt [11]: 11.9 fold
- fold-change vs wt (human FcRn (human) [12]): 1.12 fold
- fold-change vs wt (human FcγRIIIb (human) [13]): 5.19 fold
- fold-change vs wt [14]: 0.42 fold
- fold-change vs wt (human C1q (human) [17]): 0.03 fold
- FcγR reporter signaling, fold-change vs wt [cont'd] (human FcγRIIb (human) [18]): 0.69 fold
- FcγR reporter signaling, fold-change vs wt [cont'd] [19]: 4.38 fold
- FcγR reporter signaling, fold-change vs wt [cont'd] [20]: 11.9 fold
- FcγR reporter signaling, fold-change vs wt [cont'd] [21]: 0.71 fold

Substance: G236A_S239D_A330L_I332E (antibody)
- fold-change vs wt [8]: 9.68 fold
- fold-change vs wt (human FcγRIIb (human) [9]): 1.94 fold
- fold-change vs wt [10]: 8.03 fold
- fold-change vs wt [11]: 55.1 fold
- fold-change vs wt (human FcRn (human) [12]): 1.02 fold
- fold-change vs wt (human FcγRIIIb (human) [13]): 14 fold
- fold-change vs wt [14]: 5.15 fold
- fold-change vs wt (human C1q (human) [17]): 0 fold
- FcγR reporter signaling, fold-change vs wt [cont'd] (human FcγRIIb (human) [18]): 1.2 fold
- FcγR reporter signaling, fold-change vs wt [cont'd] [19]: 6.02 fold
- FcγR reporter signaling, fold-change vs wt [cont'd] [20]: 19.4 fold
- FcγR reporter signaling, fold-change vs wt [cont'd] [21]: 2.47 fold

Substance: IgG1 antibody with Fc variant R292P_Y300L
- fold-change vs wt (human C1q (human) [7]): 2.07 fold
- fold-change to WT Fc [22]: 0.682 fold
- fold-change to WT Fc (human FcγRIIb (human) [23]): 0.9 fold
- fold-change to WT Fc [24]: 1.4 fold
- fold-change vs wt [8]: 0.68 fold
- fold-change vs wt (human FcγRIIb (human) [9]): 0.9 fold
- fold-change to WT Fc [10]: 4.85 fold
- fold-change vs wt [10]: 4.85 fold
- fold-change to WT Fc [11]: 5.29 fold
- fold-change vs wt [11]: 5.29 fold
- fold-change vs wt (human FcRn (human) [12]): 0.88 fold
- fold-change vs wt (human FcγRIIIb (human) [13]): 1.72 fold
- fold-change vs wt [14]: 1.4 fold
- fold-change to WT Fc (human C1q (human) [17]): 2.09 fold
- fold-change vs wt (human C1q (human) [17]): 2.09 fold
- FcγR reporter signaling, fold-change vs wt [cont'd] (human FcγRIIb (human) [18]): 0.72 fold
- FcγR reporter signaling, fold-change vs wt [cont'd] [19]: 3.66 fold
- FcγR reporter signaling, fold-change vs wt [cont'd] [20]: 7.42 fold
- FcγR reporter signaling, fold-change vs wt [cont'd] [21]: 0.98 fold
- fold-change to WT Fc (human FcRn (human) [25]): 0.879 fold

Substance: R292P_Y300L-afuc (antibody)
- fold to wt-fucose [8]: 0.72 fold
- fold to wt-fucose (human FcγRIIb (human) [9]): 1.05 fold
- fold to wt-fucose [10]: 16.1 fold
- fold to wt-fucose [11]: 26.5 fold
- fold to wt-fucose (human FcRn (human) [12]): 0.82 fold
- fold to wt-fucose (human FcγRIIIb (human) [13]): 4.53 fold
- fold to wt-fucose [14]: 1.27 fold
- FcγR reporter signaling, fold to wt-fucose [cont'd] [15]: 4.52 fold
- FcγR reporter signaling, fold to wt-fucose [cont'd] [16]: 10.6 fold

Substance: IgG1 antibody with Fc variant Y300L
- fold-change vs wt [3]: 1.62 fold
- fold-change vs wt [4]: 1.24 fold
- fold-change vs wt (human FcRn (human) [5]): 1.06 fold
- fold-change vs wt (human C1q (human) [7]): 2.14 fold
- fold-change to WT Fc [22]: 0.822 fold
- fold-change to WT Fc (human FcγRIIb (human) [23]): 1.18 fold
- fold-change to WT Fc [24]: 1.86 fold
- fold-change vs wt [8]: 0.82 fold
- fold-change vs wt (human FcγRIIb (human) [9]): 1.18 fold
- fold-change to WT Fc [10]: 1.62 fold
- fold-change to WT Fc [11]: 1.25 fold
- fold-change vs wt [14]: 1.86 fold
- fold-change to WT Fc (human C1q (human) [17]): 2.16 fold
- fold-change to WT Fc (human FcRn (human) [25]): 1.06 fold

Substance: IgG1 antibody with Fc variant G236A_L328V_Q295E
- fold-change in binding vs wild-type IgG1 (human FcγRIIb (human) [26]): 0.81
- fold-change in binding vs wild-type IgG1 [27]: 0.52
- FcγR reporter signaling, fold-change vs wt [cont'd] (human FcγRIIb (human) [28]): 0.66 fold
- FcγR reporter signaling, fold-change vs wt [cont'd] [29]: 0.03 fold
- FcγR reporter signaling, fold-change vs wt [cont'd] [30]: 0.02 fold
- FcγR reporter signaling, fold-change vs wt [cont'd] [31]: 2.18 fold
- fold-change in binding vs wild-type IgG1 [32]: 7.76
- fold-change in binding vs wild-type IgG1 [33]: 0.36
- fold-change in binding vs wild-type IgG1 [34]: 10.7
- fold-change vs FY1 rIgG1m3 [22]: 10.8 fold
- fold-change vs wt [22]: 10.8 fold
- fold-change vs FY1 rIgG1m3 (human FcγRIIb (human) [23]): 0.9 fold
- fold-change vs wt (human FcγRIIb (human) [23]): 0.86 fold
- fold-change vs FY1 rIgG1m3 [35]: 0.4 fold
- fold-change vs wt [35]: 0.36 fold
- fold-change vs FY1 rIgG1m3 [36]: 0.5 fold
- fold-change vs wt [36]: 0.52 fold
- fold-change vs FY1 rIgG1m3 (human FcRn (human) [37]): 1.1 fold
- fold-change vs FY1 rIgG1m3 (human FcγRIIIb (human) [38]): 0.7 fold
- fold-change vs wt (human FcγRIIIb (human) [38]): 0.7 fold
- fold-change vs FY1 rIgG1m3 [24]: 7.8 fold
- fold-change vs wt [24]: 7.8 fold
- fold-change vs FY1 rIgG1m3 (human C1q (human) [39]): 0.07 fold
- fold-change vs wt (human FcRn (human) [12]): 1.08 fold
- fold-change vs wt (human C1q (human) [17]): 0.07 fold
- fold-change in binding vs wild-type IgG1 (human FcRn (human) [40]): 1.07
- fold-change in binding vs wild-type IgG1 (human FcγRIIIb (human) [41]): 0.71
